Publication PMC5733156, “Heterologous Secretory Expression and Characterization of Dimerized Bone Morphogenetic Protein 2 in Bacillus subtilis” (BioMed Research International, 2017)

Target: the molecule itself
Test: native gel or EMSA; 12% native PAGE in nonreducing condition (without SDS and β-mercaptoethanol), samples not boiled; monomer chain to dimer (the paper calls it disulfide linked)

B1: recombinant human Bone Morphogenetic Protein 2 (rhBMP2) monomer, from pHT43-BMP2-M (ligand, UniProt P12643 283-396, looked up)
chain: QAKHKQRKRLKSSCKRHPLYVDFSDVGWNDWIVAPPGYHAFYCHGECPFPLADHLNSTNHAIVQTLVNSVNSKIPKACCVPTELSAISMLYLDENEKVVLKNYQDMVVEGCGCR
notes: Bone Morphogenetic Protein 2, human, mature domain / mature peptide (~399 bp amplicon with sites and His-tag); RBMP2-M, translated, gives ...EGCGCR then GRG then HHHHHH and stop, so three residues (GRG) may lie between BMP2 and the His-tag; also called rhBMP (monomer); source: B. subtilis SCK6, secreted into the culture supernatant (pHT43, amyQ signal peptide); purified by FPLC (Resource Q)
B1 was tested, and the “stoichiometry N” value was 2.
